The results in this text go back to IntAct's records for PubMed 29892012.

B1: Genetic suppressor element 1 (Homo sapiens), Q14687 (parent)
chain: MKGMSHEPKSPSLGMLSTATRTTATVNPLTPSPLNGALVPSGSPATSSALSAQAAPSSSFAAALRKLAKQAEEPRGSSLSSESSPVSSPATNHSSPASTPKRVPMGPIIVPPGGHSVPSTPPVVTIAPTKTVNGVWRSESRQDAGSRSSSGGRERLIVEPPLPQEKAGGPAIPSHLLSTPYPFGLSPSSVVQDSRFPPLNLQRPVHHVVPPSTVTEDYLRSFRPYHTTDDLRMSSLPPLGLDPATAAAYYHPSYLAPHPFPHPAFRMDDSYCLSALRSPFYPIPTPGSLPPLHPSAMHLHLSGVRYPPELSHSSLAALHSERMSGLSAERLQMDEELRREREREREREREREADREREKEREREREKEREQEKEREREKERERELERQREQRAREKELLAAKALEPSFLPVAELHGLRGHATEERGKPSEQLTPTRAEKLKDAGLQAPKPVQHPLHPVPTPHHTVPSLISNHGIFSLPSSSAATALLIQRTNEEEKWLARQRRLRQEKEDRQSQVSEFRQQVLEQHLDMGRPPVPAEAEHRPESTTRPGPNRHEPGGRDPPQHFGGPPPLISPKPQLHAAPTALWNPVSLMDNTLETRRAESHSLHSHPAAFEPSRQAAVPLVKVERVFCPEKAEEGPRKREPAPLDKYQPPPPPPREGGSLEHQPFLPGPGPFLAELEKSTQTILGQQRASLPQAATFGELSGPLKPGSPYRPPVPRAPDPAYIYDEFLQQRRRLVSKLDLEERRRREAQEKGYYYDLDDSYDESDEEEVRAHLRCVAEQPPLKLDTSSEKLEFLQLFGLTTQQQKEELVAQKRRKRRRMLRERSPSPPTIQSKRQTPSPRLALSTRYSPDEMNNSPNFEEKKKFLTIFNLTHISAEKRKDKERLVEMLRAMKQKALSAAVADSLTNSPRDSPAVSLSEPATQQASLDVEKPVGVAASLSDIPKAAEPGKLEQVRPQELSRVQELAPASGEKARLSEAPGGKKSLSMLHYIRGAAPKDIPVPLSHSTNGKSKPWEPFVAEEFAHQFHESVLQSTQKALQKHKGSVAVLSAEQNHKVDTSVHYNIPELQSSSRAPPPQHNGQQEPPTARKGPPTQELDRDSEEEEEEDDEDGEDEEEVPKRKWQGIEAVFEAYQEHIEEQNLERQVLQTQCRRLEARHYSLSLTAEQLSHSVAELRSQKQKMVSERERLQAELDHLRKCLALPAMHWPRGYLKGYPR
partner: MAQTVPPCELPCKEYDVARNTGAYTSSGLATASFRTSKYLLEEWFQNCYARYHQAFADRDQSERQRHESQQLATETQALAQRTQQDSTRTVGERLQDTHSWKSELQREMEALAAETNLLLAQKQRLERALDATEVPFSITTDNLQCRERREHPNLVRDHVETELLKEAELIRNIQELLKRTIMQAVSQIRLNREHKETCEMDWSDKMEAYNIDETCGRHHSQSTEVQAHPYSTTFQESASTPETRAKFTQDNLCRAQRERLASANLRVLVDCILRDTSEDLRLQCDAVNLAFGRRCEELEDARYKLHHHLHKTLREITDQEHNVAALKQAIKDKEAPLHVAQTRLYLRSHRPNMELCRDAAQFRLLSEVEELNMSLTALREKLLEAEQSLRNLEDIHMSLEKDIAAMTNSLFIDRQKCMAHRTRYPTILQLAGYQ
B2: Kinetochore protein NDC80 homolog (Homo sapiens), O14777 (parent)
chain: MKRSSVSSGGAGRLSMQELRSQDVNKQGLYTPQTKEKPTFGKLSINKPTSERKVSLFGKRTSGHGSRNSQLGIFSSSEKIKDPRPLNDKAFIQQCIRQLCEFLTENGYAHNVSMKSLQAPSVKDFLKIFTFLYGFLCPSYELPDTKFEEEVPRIFKDLGYPFALSKSSMYTVGAPHTWPHIVAALVWLIDCIKIHTAMKESSPLFDDGQPWGEETEDGIMHNKLFLDYTIKCYESFMSGADSFDEMNAELQSKLKDLFNVDAFKLESLEAKNRALNEQIARLEQEREKEPNRLESLRKLKASLQGDVQKYQAYMSNLESHSAILDQKLNGLNEEIARVELECETIKQENTRLQNIIDNQKYSVADIERINHERNELQQTINKLTKDLEAEQQKLWNEELKYARGKEAIETQLAEYHKLARKLKLIPKGAENSKGYDFEIKFNPEAGANCLVKYRAQVYVPLKELLNETEEEINKALNKKMGLEDTLEQLNAMITESKRSVRTLKEEVQKLDDLYQQKIKEAEEEDEKCASELESLEKHKHLLESTVNQGLSEAMNELDAVQREYQLVVQTTTEERRKVGNNLQRLLEMVATHVGSVEKHLEEQIAKVDREYEECMSEDLSENIKEIRDKYEKKATLIKSSEE
partner: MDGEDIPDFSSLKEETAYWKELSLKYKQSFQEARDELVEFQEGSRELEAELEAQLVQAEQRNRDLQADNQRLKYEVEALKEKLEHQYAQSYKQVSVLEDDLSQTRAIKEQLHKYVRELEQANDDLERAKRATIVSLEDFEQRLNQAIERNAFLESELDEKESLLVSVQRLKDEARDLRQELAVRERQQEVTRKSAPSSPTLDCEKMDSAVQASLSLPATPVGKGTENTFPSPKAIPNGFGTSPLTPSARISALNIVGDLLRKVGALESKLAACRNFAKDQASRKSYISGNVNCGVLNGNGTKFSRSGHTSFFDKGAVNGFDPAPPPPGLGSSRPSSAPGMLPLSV
B3: Protein VAC14 homolog (Homo sapiens), Q08AM6 (parent)
chain: MNPEKDFAPLTPNIVRALNDKLYEKRKVAALEIEKLVREFVAQNNTVQIKHVIQTLSQEFALSQHPHSRKGGLIGLAACSIALGKDSGLYLKELIEPVLTCFNDADSRLRYYACEALYNIVKVARGAVLPHFNVLFDGLSKLAADPDPNVKSGSELLDRLLKDIVTESNKFDLVSFIPLLRERIYSNNQYARQFIISWILVLESVPDINLLDYLPEILDGLFQILGDNGKEIRKMCEVVLGEFLKEIKKNPSSVKFAEMANILVIHCQTTDDLIQLTAMCWMREFIQLAGRVMLPYSSGILTAVLPCLAYDDRKKSIKEVANVCNQSLMKLVTPEDDELDELRPGQRQAEPTPDDALPKQEGTASGGPDGSCDSSFSSGISVFTAASTERAPVTLHLDGIVQVLNCHLSDTAIGMMTRIAVLKWLYHLYIKTPRKMFRHTDSLFPILLQTLSDESDEVILKDLEVLAEIASSPAGQTDDPGPLDGPDLQASHSELQVPTPGRAGLLNTSGTKGLECSPSTPTMNSYFYKFMINLLKRFSSERKLLEVRGPFIIRQLCLLLNAENIFHSMADILLREEDLKFASTMVHALNTILLTSTELFQLRNQLKDLKTLESQNLFCCLYRSWCHNPVTTVSLCFLTQNYRHAYDLIQKFGDLEVTVDFLAEVDKLVQLIECPIFTYLRLQLLDVKNNPYLIKALYGLLMLLPQSSAFQLLSHRLQCVPNPELLQTEDSLKAAPKSQKADSPSIDYAELLQHFEKVQNKHLEVRHQRSGRGDHLDRRVVL

In one assay the parent is B1. To be noted: with tekt4_human TEKT4, Q8WW24.
Regarding R503Q, the “effect of a mutation on the interaction” value was “with no effect”.

The variants in a further assay derive from B1. The conditions noted are these: with tekt4_human TEKT4, Q8WW24. The source holds these as a separate data set.
Turning to E368K, the “effect of a mutation on the interaction” value is “with no effect”.

The next assay covers variants of B2. The conditions noted are these: with ndel1_human NDEL1, Q9GZM8.
With K288E, the “effect of a mutation on the interaction” value is reported as “with no effect”.

A further assay covers variants of B3. The conditions noted are these: with fnd3b_human FNDC3B.
On to A127S, for which the “effect of a mutation on the interaction” value is on record as “with no effect”.

Variants of B3 are the subject of a further assay. The conditions noted are these: with at2l2_human PHYKPL.
Turning to A127S, the “effect of a mutation on the interaction” value is listed as “with no effect”.

The variants in the next assay derive from B3. To be noted: with cd209_human CD209, Q9NNX6.
Sequence of cd209_human CD209, Q9NNX6 (Q9NNX6 whole entry): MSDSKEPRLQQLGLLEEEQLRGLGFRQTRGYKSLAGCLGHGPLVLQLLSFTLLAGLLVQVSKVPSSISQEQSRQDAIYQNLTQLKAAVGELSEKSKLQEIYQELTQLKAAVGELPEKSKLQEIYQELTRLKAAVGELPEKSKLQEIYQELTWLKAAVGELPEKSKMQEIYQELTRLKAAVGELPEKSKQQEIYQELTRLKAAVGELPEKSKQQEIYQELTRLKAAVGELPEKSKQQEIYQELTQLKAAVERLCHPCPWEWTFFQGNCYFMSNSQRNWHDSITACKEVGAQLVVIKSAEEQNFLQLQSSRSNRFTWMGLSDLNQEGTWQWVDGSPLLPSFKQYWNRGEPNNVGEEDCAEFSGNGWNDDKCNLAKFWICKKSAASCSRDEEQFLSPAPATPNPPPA
As for A127S, the “effect of a mutation on the interaction” value is reported as “with no effect”.

Variants of B3 are the subject of another assay. The conditions noted are these: with myome_human PDE4DIP.
With A127S, the “effect of a mutation on the interaction” value is listed as “with no effect”.

In a further assay the parent is B3. To be noted: with co8a1_human COL8A1, P27658.
Sequence of co8a1_human COL8A1, P27658 (P27658 whole entry): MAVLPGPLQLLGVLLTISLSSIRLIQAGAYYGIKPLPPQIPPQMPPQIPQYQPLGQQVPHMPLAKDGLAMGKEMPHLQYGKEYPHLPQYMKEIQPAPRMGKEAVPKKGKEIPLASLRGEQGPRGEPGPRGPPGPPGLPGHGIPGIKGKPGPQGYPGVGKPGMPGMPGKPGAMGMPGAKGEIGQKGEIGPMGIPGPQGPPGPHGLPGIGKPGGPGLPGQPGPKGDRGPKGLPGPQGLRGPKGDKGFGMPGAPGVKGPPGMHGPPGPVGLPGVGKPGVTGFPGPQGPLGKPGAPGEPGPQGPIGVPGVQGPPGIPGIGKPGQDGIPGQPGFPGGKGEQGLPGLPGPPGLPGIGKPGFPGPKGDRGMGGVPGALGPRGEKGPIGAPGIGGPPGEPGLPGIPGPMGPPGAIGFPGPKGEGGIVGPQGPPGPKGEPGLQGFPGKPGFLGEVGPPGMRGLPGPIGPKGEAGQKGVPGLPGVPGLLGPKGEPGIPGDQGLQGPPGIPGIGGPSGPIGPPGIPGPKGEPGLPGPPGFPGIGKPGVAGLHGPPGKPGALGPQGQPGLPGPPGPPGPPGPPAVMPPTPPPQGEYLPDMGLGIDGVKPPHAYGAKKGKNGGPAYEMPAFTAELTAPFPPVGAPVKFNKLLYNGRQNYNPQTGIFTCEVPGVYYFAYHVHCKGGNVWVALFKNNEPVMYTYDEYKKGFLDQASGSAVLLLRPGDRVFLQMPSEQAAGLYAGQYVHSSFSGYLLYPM
As for A127S, the “effect of a mutation on the interaction” value is recorded as “with no effect”.

In a further assay the parent is B3. The conditions noted are these: with znf34_human ZNF34, Q8IZ26.
Sequence of znf34_human ZNF34, Q8IZ26 (Q8IZ26 whole entry): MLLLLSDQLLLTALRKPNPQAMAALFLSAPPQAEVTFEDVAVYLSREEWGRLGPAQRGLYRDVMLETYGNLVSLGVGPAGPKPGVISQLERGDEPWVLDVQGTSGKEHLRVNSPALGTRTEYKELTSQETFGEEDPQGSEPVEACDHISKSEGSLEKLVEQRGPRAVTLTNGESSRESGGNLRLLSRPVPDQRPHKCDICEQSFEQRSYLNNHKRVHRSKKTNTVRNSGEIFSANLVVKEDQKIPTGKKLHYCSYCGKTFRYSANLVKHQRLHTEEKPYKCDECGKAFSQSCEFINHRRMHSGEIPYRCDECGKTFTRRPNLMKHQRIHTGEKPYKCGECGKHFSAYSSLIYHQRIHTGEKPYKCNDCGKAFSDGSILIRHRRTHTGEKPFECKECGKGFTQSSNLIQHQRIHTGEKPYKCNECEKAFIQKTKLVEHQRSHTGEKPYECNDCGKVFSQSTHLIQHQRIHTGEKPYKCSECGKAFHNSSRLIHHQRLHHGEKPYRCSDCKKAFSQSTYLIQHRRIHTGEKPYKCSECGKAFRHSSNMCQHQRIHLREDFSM
For the variant A127S, the “effect of a mutation on the interaction” value is recorded as “with no effect”.

Variants of B3 are the subject of another assay. To be noted: with ntaq1_human NTAQ1, Q96HA8.
Sequence of ntaq1_human NTAQ1, Q96HA8 (Q96HA8 whole entry): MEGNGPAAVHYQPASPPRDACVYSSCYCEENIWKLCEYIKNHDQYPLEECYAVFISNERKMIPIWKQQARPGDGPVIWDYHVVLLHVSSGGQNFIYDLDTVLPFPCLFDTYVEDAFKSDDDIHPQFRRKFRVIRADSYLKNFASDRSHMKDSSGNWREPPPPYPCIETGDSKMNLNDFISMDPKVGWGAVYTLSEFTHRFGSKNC
As for A127S, the “effect of a mutation on the interaction” value is recorded as “with no effect”.

The variants in a further assay derive from B3. To be noted: with casp1_human CASP1, P29466.
Sequence of casp1_human CASP1, P29466 (P29466 whole entry): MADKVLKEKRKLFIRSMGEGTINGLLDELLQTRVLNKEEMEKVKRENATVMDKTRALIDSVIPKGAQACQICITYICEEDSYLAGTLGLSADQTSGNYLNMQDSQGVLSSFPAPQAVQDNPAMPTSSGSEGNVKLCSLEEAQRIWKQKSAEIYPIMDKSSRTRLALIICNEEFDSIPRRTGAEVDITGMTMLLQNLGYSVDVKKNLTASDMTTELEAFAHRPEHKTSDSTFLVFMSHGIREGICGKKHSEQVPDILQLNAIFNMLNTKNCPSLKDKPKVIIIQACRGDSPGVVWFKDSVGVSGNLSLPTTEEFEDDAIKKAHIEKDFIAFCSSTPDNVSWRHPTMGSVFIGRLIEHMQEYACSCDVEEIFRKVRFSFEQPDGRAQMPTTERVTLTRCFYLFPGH
Take A127S: the “effect of a mutation on the interaction” value is recorded as “with no effect”.

The variants in the next assay derive from B3. To be noted: with fyv1_human PIKFYVE.
As for A127S, the “effect of a mutation on the interaction” value was “with no effect”.
